# Source: US5985278A (Merck Patent Gesellschaft mit Beschrankter Haftung, priority 1994, dated 1999)
# Several values for one entry are separate records, joined by “and”; a condition that tells them apart may be missing. Equal entries are not always repeated.
# Assays:
# αvβ3 = biological target: T1, αvβ3 (Homo sapiens, UniProt P05106+P06756); assay: Direct competition assay, vitronectin binding to isolated αvβ3; details: isolated receptor
# T1 construct: αVβ3 was purified from human placenta; from tissue; host or cells: human term placenta
# T1 sequence (P06756 31-889 limits assumed): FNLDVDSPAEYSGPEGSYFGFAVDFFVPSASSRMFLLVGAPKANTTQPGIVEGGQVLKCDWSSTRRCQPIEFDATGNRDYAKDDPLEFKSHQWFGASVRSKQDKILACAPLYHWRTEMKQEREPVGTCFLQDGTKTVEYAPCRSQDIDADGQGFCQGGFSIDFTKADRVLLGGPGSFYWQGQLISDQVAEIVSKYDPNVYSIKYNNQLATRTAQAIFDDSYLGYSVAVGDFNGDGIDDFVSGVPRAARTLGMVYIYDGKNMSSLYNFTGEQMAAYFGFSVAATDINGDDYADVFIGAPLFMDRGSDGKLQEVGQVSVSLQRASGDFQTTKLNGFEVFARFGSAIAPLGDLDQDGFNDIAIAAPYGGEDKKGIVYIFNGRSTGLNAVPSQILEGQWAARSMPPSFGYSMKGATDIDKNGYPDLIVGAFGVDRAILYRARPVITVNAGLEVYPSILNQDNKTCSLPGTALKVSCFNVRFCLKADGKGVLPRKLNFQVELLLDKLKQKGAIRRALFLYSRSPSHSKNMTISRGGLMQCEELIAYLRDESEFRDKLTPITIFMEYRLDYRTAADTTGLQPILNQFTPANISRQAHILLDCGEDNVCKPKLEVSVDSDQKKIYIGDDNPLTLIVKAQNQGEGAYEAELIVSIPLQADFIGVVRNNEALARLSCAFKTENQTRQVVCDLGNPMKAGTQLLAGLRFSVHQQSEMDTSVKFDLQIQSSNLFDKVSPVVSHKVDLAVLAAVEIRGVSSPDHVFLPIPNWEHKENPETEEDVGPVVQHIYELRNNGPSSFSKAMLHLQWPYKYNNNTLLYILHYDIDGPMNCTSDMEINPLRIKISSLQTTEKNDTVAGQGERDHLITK
# T1 sequence (P06756 891-1048 limits assumed): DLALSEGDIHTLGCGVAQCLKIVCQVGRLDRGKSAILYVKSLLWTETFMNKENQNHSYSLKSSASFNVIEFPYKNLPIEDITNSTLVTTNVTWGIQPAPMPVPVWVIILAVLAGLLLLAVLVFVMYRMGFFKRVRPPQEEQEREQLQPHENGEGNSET
# T1 sequence (P05106 27-788): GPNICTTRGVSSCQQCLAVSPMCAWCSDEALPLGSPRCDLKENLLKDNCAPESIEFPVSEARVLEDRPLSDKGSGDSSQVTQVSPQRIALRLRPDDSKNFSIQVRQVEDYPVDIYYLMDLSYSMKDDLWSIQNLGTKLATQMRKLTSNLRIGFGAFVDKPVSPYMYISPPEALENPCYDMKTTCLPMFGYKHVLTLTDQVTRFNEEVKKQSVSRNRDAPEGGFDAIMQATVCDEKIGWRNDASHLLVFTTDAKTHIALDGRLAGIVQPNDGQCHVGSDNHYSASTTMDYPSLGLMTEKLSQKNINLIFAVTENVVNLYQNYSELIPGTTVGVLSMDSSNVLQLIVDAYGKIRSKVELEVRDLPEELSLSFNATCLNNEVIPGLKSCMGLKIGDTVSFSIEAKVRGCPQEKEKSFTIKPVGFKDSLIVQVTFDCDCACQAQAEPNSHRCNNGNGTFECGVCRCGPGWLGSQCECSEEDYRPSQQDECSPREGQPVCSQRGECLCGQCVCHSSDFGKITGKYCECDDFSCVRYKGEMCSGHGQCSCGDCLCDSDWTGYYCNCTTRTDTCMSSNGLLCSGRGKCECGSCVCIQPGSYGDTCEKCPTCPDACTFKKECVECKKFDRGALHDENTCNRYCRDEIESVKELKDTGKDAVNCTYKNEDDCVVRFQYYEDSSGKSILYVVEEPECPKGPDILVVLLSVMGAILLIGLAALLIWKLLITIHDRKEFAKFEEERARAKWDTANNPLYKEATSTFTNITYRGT
# Description: The plate was washed once with buffer B (3% BSA (w/v), 100 mM NaCl, 1 mM MgCl2, 1 mM CaCl2, 10 mM MnCl2, 50 mM Tris-HCl; pH 7.4) and incubated 2 h at 20° C. in the same buffer.
# After rinsing with buffer C (buffer B with BSA at 0.1% (w/v)) was added containing biotinylated ligand (1 μg ml^-1 end concentration) and serially diluted test peptides or proteins. After incubation (3 h, 30° C.), unbound ligand was washed from the plate by 3 rinses with buffer C, and incubation continued for 1 h with anti-biotin-alkaline phosphatase-conjugated antibody (1:10000 in buffer C) (Sigma) followed by PBS wash and detection of bound antibody with NBT-BCIP (Biorad) as substrate. ECM molecules and antibodies were routinely biotinylated and used in such an assay configuration.
# Assays were routinely performed in triplicate or quadruplicate, and repeated at least 3 times to derive an IC50 from an unweighted sigmoid curve fit. Results were normalized against external control peptides to allow intra-assay comparison.
# [1] = in vivo; cited from earlier work
# [2] = test system: M21-L, M21-L4 and M21-L-IIb cells; assay: DNA synthesis ([3H]-thymidine incorporation) in M21 variant lines; format: cell-based, human; details: M21-L and M21-LGpIIb, FIG. 9 B, D
# Description: (§1) Adherent melanoma cells were detached (0.05% Trypsin/0.02% EDTA). Washed cells were seeded into 96-well flat-bottom microtest plates (1×10^4 cells per well) and cultured without (control) or in the presence of serially diluted antibodies in RPMI medium with 10% FCS. After 48 h, cells were pulse labelled for 18 h (18.5 kBeq [^3 H]-thymidine per well) and harvested. Incorporated radioactivity was measured and expressed as counts per minute.
# M21 cells [3] = assay: M21 cell attachment to vitronectin; format: cell-based, human; details: maximal block
# Description: (§2) Cell Attachment Assays were as previously described (Goodman et al., 1991), using hexosaminidase activity (Landegren, 1984) to detect attached cells. Dilutions and cell suspensions were in attachment buffer (RPMI, 1% BSA, 25 mM HEPES; pH 7.4). Matrix proteins were coated onto 96- or 48-well plates, the wells were blocked with BSA and serially diluted MAbs were added to the wells followed by cells (2.5×10^4 -5×10^4). After 1 h at 37° C., non-adherent cells were washed away and attached cells counted against a standard curve run in parallel. Inhibition of attachment was calculated by using wells with no MAbs as reference. Typically, over 70% of added cells had attached to vitronectin at 1 h. Cell attachment to wells coated with BSA alone was routinely less than 5% of specifically attached cells.
# WM793 cells [4] = assay: WM793 cell attachment to vitronectin; format: cell-based, human; details: FIG. 4e,f
# Description: as §2
# M21-L = assay: Subcutaneous M21-L tumor development in nude mice; format: in vivo, BALB/c nu/nu mice; details: FIG. 7b
# Description: (§3) Tumor cells in exponential growth were harvested with EDTA, washed and examined for viability by trypan blue dye exclusion. Viability was between 96-99%. For primary tumor growth, cells (0.5×10^6 cells in 0.2 ml PBS++) were injected subcutaneously into the flanks of nude mice. Tumor growth was followed by measuring tumor diameters with callipers and the tumor volume was calculated using an approximated formula for a prolate ellipsoid: […]
# (§4) where a is the longest axis of the tumor and b the shortest. A minimum of eight animals was used per group.
# (§5) For experimental lung metastasis, cells were harvested (0.05% Trypsin/0.02%EDTA) and were injected into the tail vein of nude mice (0.5×10^6 cells in 0.2 ml PBS++). 7 weeks later the animals were sacrificed, the lungs removed and fixed in a Bouins' solution, and the tumor foci on the surface of the lungs counted. For antibody treatment, harvested and washed cells were incubated with purified endotoxin free MAbs (70 μg per 10^6 cells 0.5 ml PBS++) for 30 min at 20° C. in an end-over-end rotator before dilution to 0.5×10^6 cells in 0.2 ml PBS and injection. Cells viability was assessed by Trypan blue dye exclusion before and after completing the injection schedule, where no significant difference was found (viability pre-injection=viability post injection ±5%). The tumor inhibition data was assessed using the 2-tailed Student T-test.
# M21-L4 cells = assay: Flow cytometry (FACS) on M21-L4; format: binding, human; details: relative to secondary antibody only
# Description: (§6) Cells were harvested with EDTA, washed, and 10^6 cells in PBS-1% BSA were incubated with MAb (10 μg ml^-1; 20 min, 4° C.). After washing and labelling (20 min, 4° C.) with goat anti-mouse Ig-FITC (Becton Dickinson), cells were incubated with propidium iodide before flow cytometry analysis (EPICS Profile II, Coulter). Living cells were selected by appropriate gates on the side and forward scatter. Fluorescein was excited at 488 nm with an argon ion laser and the emitted fluorescence (525 nm) was recorded. In some experiments, M21-L cells were stained following a brief fixation and permeabilization step (70% ethanol; 5 min×-20° C.).
# WM793 cells [5] = assay: Flow cytometry (FACS) on WM793; format: binding, human; details: relative to secondary antibody only
# Description: as §6
# B16F10 cells [6] = assay: Flow cytometry (FACS) on B16F10; format: binding; details: murine cell
# Description: as §6
# M21-L cells = assay: Flow cytometry (FACS) on M21-L; format: binding, human; details: relative to secondary antibody only
# Description: as §6
# [7] = test system: αvβ3 (WM164 and M21 cells); assay: Cell attachment to vitronectin mediated by αvβ3 (WM164 and M21 cells); format: cell-based, human; details: FIG. 11
# Description: as §2
# M21 tumor foci = assay: Lung colonization experimental metastasis assay; format: in vivo, BALB/C nu/nu mice
# Description: as §5
# M21 cells [8] = assay: M21 cell proliferation assay; format: cell-based, human; design: dose or concentration left out as unconfirmed; details: M21, antibody (FIG. 8a)
# Description: […] Growth and viability were estimated by Trypan blue dye exclusion. Activation was measured by the MTT assay as described above, and cell numbers were counted daily using a cell counter (Coulter electronics).
# B16F10 cells [9] = assay: B16F10 cell attachment to vitronectin; format: cell-based; details: murine cell
# Description: as §2
# UCLA-P3 cells = assay: Flow cytometry (FACS) on UCLA-P3; format: binding, human; details: relative to secondary antibody only
# Description: as §6
# M21 cells [10] = assay: Flow cytometry (FACS) on M21; format: binding, human
# Description: as §6
# M21 cells [11] = assay: M21 cell attachment to laminin and collagen; format: cell-based, human; details: M21, FIG. 5
# Description: as §2
# purified αvβ3 = assay: ELISA on purified αvβ3; format: binding, human
# [12] = test system: human melanoma and carcinoma cell lines; assay: αV-mediated cell attachment to vitronectin, cell line panel; format: cell-based
# Description: as §2
# αvβ1 (V+B2 cells) = assay: Cell attachment to vitronectin mediated by αvβ1 (V+B2 cells); format: cell-based; details: FIG. 11
# Description: as §2
# M21-L-IIb cells = assay: Flow cytometry (FACS) on M21-L-IIb; format: binding, human; details: relative to secondary antibody only
# Description: as §6
# αvβ5 (UCLA-P3 cells) = assay: Cell attachment to vitronectin mediated by αvβ5 (UCLA-P3 cells); format: cell-based, human
# Description: as §2
# M21 cells [13] = assay: DNA synthesis ([3H]-thymidine incorporation) in M21; format: cell-based, human; design: dose or concentration left out as unconfirmed
# Description: as §1
# M21 cells [14] = assay: Antibody-directed cellular cytotoxicity (ADCC) with BALB/c microglia; format: cell-based, human; details: up to 10^-7 M, murine microglia effector cells
# Description: Preparation of BALB/C microglial cells and conditions for ADCC and antibody-effector cell mediated cytostasis (AECM) were essentially as described (Sutter et al., 1991). M21 cells were pulsed for 18 h with ^3 H-thymidine (18 kBq per 4×10^3 cells per well) and incubated on 96-well plates with BALB/C microglia (5×10^4 cells per well) in 200 μl DMEM/FCS (10%) in the presence of antibodies. After 48 hrs, [^3 H] label retained in the nuclear compartment of target cells was measured. MAb dependent cytotoxicity was calculated using the formula: [(experimental ccpm-spontaneous ccpm)/(maximum ccpm-spontaneous ccpm)]×100.
# M21-L12 cells = assay: Flow cytometry (FACS) on M21-L12; format: binding, human; details: relative to secondary antibody only
# Description: as §6
# M21 cells [15] = assay: Complement dependent cytotoxicity (CDC); format: cell-based, human; details: not shown
# Description: M21 cells (10,000) were plated in a 96-well plate with 50 μl of complete medium and 20 μl of antibodies. Rabbit serum (50 μl, 1:5; Behring) was added as source of complement and plate was incubated (37° C.; 60 min). Lysis was quantified by MTT technique (Mosmann, 1983). Percent of lysis was calculated using wells with 1% Tween-20 as 100% lysed controls, and without antibody as 0% lysed control.
# M21 tumors = assay: Subcutaneous M21 tumor development in nude mice; format: in vivo, BALB/c nu/nu mice
# Description: as §3, §4, §5
molecule,measurement,setting,value
GRGDSPK [Gly-Arg-Gly-Asp-Ser-Pro-Lys],IC50,αvβ3,~2000 nM
RGDS: RGD-peptide (SEQ ID NO:6),serum half-life,[1],8 min
CC(=O)O[C@H]1C(=O)[C@@]2(C)[C@H]([C@H](OC(=O)c3ccccc3)[C@]3(O)C[C@H](OC(=O)[C@H](O)[C@@H](NC(=O)c4ccccc4)c4ccccc4)C(C)=C1C3(C)C)[C@]1(OC(C)=O)CO[C@@H]1C[C@@H]2O [Taxol],"DNA synthesis, positive control",[2],completely suppresses
"17E6: murine IgG1 monoclonal antibody against human αv-integrin chain, from hybridoma 272-17E6 (DSM ACC2160) (antibody, V domains shown) VH: QVQLQQSGAELAEPGASVKMSCKASGYTFSSFWMHWVKQRPGQGLEWIGYINPRSGYTECNEIFRDKATMTADTSSSTAYMQLSGLTSEDSAVYYCASFLGRGAMDYWGQGTSVTVSS VL: DIQMTQTTSSLSASLGDRVIISCRASQDISNYLSWYQQKPDGTVKLLIFYTSKLHSGVPSRFSGSGSGTDYSLTISNLDQEDIATYFCQQGNTFPYTFGGGTKVEMR",block of M21 initial attachment to vitronectin,M21 cells [3],~ 85% and ~ 90%
same,"IC50, WM793 attachment to vitronectin",WM793 cells [4],~ 60 ng ml^-1
same,subcutaneous M21-L growth / take,M21-L,unaffected
same,"Reactivity in flow cytometry, M21-L4",M21-L4 cells,++ (4-9 (++))
same,"Reactivity in flow cytometry, WM793 (αvβ3; αvβ5)",WM793 cells [5],+++ (>9 (+++))
same,FACS reaction with B16F10,B16F10 cells [6],did not react
same,"Reactivity in flow cytometry, M21-L",M21-L cells,- (1-2 (-))
same,"IC50, αvβ3 attachment (WM164 and M21 cells)",[7],~ 0.5 μg ml^-1
same,Tumor Take,M21 tumor foci; 7 weeks after tail vein injection,78
same,"Number of Tumor Foci, Mean ± SEM","M21 tumor foci; lung surface, 7 weeks",8 ± 7.7
same,"Number of Tumor Foci, Median","M21 tumor foci; lung surface, 7 weeks",5
same,reduction of numbers of tumor colonies,"M21 tumor foci; pre-incubation of M21 with antibody, tail-vein injection",90%
same,% Control,M21 tumor foci; tumor foci relative to M21 control,9%
same,kinetic of cell growth and saturation density,M21 cells [8],not greatly influenced
same,B16F10 attachment on vitronectin,B16F10 cells [9],not affected
same,"Reactivity in flow cytometry, UCLA-P3 (αvβ5)",UCLA-P3 cells,+++ (>9 (+++))
same,"Reactivity in flow cytometry, M21 (αvβ3; αvβ5)","M21 cells [10]; relative to secondary antibody only, MAb 10 μg ml^-1",++ (4-9 (++))
same,FACS reaction with M21,M21 cells [10]; αv-expressing line,strongly
same,"cell attachment to other matrix substrates (laminin, collagen)",M21 cells [11],lack of effect
same,50% saturation in ELISA on isolated αvβ3,purified αvβ3; FIG. 10,~ 1 ng ml^-1
same,50% binding to αvβ3 in ELISA,purified αvβ3; screening ELISA,10 to 20 ng/mL
same,EC50,"purified αvβ3; screening ELISA, read-out: 50% binding to αvβ3 in ELISA",0.05 to 0.1 nM
same,IC50 in cellular assay,[12],~ 100 ng ml^-1
same,IC50,"[12]; antibody MW 150,000, read-out: IC50, αV-mediated cell attachment",0.3 to 1 nM
same,initial attachment to vitronectin of cells reacting in FACS with 17E6,"[12]; hybridoma supernatants, FIG. 3",strongly blocked
same,"IC50, cell attachment mediated by αvβ1 (V+B2 cells)",αvβ1 (V+B2 cells),~ 0.1 μg ml^-1
same,"Reactivity in flow cytometry, M21-L-llb (αllbβ3)",M21-L-IIb cells,- (1-2 (-))
same,"IC50, attachment to vitronectin on αvβ5 (UCLAP3)","αvβ5 (UCLA-P3 cells); FIG. 4c,d",~ 30 ng ml^-1
same,"IC50, cell attachment mediated by αvβ5 (UCLA-P3 cells)","αvβ5 (UCLA-P3 cells); vitronectin, FIG. 11",~ 0.1 μg ml^-1
same,thymidine incorporation in M21 cells,M21 cells [13],no effect
same,ADCC against M21,M21 cells [14],did not mediate ADCC
same,"Reactivity in flow cytometry, M21-L12",M21-L12 cells,- (1-2 (-))
same,complement mediated lysis on M21 cells,M21 cells [15],did not affect
same,tumors and metastases at sacrifice,"M21 tumors; 6 months, lungs, liver, kidney, spleen, colon, stomach, body cavities",neither subcutaneous tumors nor metastases
same,tumors taken in the presence of antibody,M21 tumors; M21 cells subcutaneously co-injected with antibody,0/32
same,experiments in which subcutaneous development of M21 tumors was blocked,"M21 tumors; mouse, in vivo",4/4
same,time animals remain tumor free,"M21 tumors; mouse, in vivo",> 6 months
